From paper PMC8012516 (2021)

Columns and labels:
[1] = target: S-receptor-binding domain (RBD)-Fc of SARS-CoV-2 (SARS-CoV-2, UniProt P0DTC2); assay: SPR
[2] = target: angiotensin-converting enzyme 2 (UniProt Q9BYF1 18-805); assay: SPR
angiotensin-converting enzyme 2, sequence (Q9BYF1 18-740): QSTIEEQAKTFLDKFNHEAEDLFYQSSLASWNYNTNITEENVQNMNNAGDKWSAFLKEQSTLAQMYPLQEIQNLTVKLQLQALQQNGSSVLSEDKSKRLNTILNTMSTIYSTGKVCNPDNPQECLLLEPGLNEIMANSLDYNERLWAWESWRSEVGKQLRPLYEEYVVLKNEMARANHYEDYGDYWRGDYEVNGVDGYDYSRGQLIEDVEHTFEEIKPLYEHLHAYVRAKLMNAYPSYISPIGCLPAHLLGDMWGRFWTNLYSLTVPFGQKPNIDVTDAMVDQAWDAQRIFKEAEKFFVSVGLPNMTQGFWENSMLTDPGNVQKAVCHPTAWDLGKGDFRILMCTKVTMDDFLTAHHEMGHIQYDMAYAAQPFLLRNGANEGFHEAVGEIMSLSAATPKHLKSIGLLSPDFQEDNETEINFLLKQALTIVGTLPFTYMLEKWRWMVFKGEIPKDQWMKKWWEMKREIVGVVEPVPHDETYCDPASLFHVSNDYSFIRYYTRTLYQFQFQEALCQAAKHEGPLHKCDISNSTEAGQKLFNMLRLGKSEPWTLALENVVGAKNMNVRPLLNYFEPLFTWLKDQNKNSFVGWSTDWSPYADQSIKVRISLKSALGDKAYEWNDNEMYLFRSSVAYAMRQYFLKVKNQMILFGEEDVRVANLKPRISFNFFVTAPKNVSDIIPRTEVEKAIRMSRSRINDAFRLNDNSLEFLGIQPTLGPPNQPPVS

VQWRIRVAVIRK [antibacterial peptide DP7]
koff [1]: 0.00501 s⁻¹ | koff [2]: 0.00918 s⁻¹
